Assay [1] deals with CCL11_HUMAN (Homo sapiens, UniProt P51671). Nature of the assay: Biolayer interferometry (BLI) binding. The method, boiled down: (§1)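 His-tagged purified tick CKBPs were loaded on Ni-NTA sensors and screened against chemokine at 300 nM. Chemokines that bound in this screen were retested at several concentrations. Association, equilibrium and dissociation curves were fitted to give Kd in molar units.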
Background: In BLI a coated tip is dipped into the sample, and binding shifts an interference pattern.

The target of assay [2] is CCL13_HUMAN (Homo sapiens, UniProt Q99616). The assay is described as follows: Biolayer interferometry (BLI) binding. The method, boiled down: as §1
The target in assay [3] is CCL2_HUMAN (Homo sapiens, UniProt P13500). The assay is described as follows: Biolayer interferometry (BLI) binding. The gist of the method:
as §1

Assay [4] addresses T1, CCL16_HUMAN (Homo sapiens, UniProt O15467).
T1 sequence (O15467 24-120): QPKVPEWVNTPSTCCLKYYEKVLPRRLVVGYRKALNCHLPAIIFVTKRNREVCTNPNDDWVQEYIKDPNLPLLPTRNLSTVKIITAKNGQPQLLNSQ
Nature of the assay: Biolayer interferometry (BLI) binding. The gist of the method: as §1

The target in assay [5] is T2, CCL1_HUMAN (Homo sapiens, UniProt P22362).
T2 sequence (P22362 24-96): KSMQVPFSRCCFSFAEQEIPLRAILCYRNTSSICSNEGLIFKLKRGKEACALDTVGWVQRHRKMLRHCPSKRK
Nature of the assay: Biolayer interferometry (BLI) binding. The method, boiled down: as §1

Assay [6] has as its target T3, CCL3_HUMAN (Homo sapiens, UniProt P10147).
T3 sequence (P10147 24-92): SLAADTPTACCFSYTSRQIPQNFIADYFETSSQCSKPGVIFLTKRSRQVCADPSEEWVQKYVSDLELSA
Nature of the assay: Biolayer interferometry (BLI) binding. The gist of the method: as §1

Assay [7] concerns the target T4, CCL18_HUMAN (Homo sapiens, UniProt P55774).
T4 sequence (P55774 21-89): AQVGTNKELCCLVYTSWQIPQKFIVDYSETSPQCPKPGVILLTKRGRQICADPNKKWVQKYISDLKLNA
Nature of the assay: Biolayer interferometry (BLI) binding. The gist of the method:
as §1

Assay [8] concerns the target T5, CCL24_HUMAN (Homo sapiens, UniProt O00175).
T5 sequence (O00175 27-119): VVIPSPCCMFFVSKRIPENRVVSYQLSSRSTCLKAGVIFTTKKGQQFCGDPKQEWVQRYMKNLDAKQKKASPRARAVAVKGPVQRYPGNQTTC
The assay is described as follows: Biolayer interferometry (BLI) binding. The gist of the method:
as §1

For assay [9], the target named is T6, CCL4_HUMAN (Homo sapiens, UniProt P13236).
T6 sequence (P13236 24-92): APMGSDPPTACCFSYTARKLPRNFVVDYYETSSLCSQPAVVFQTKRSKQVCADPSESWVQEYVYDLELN
Nature of the assay: Biolayer interferometry (BLI) binding. The gist of the method:
as §1

Assay [10] concerns the target CCL3L1_HUMAN (Homo sapiens, UniProt P16619). Nature of the assay: Biolayer interferometry (BLI) binding. The method, boiled down: as §1
The target in assay [11] is T7, CCL5_HUMAN (Homo sapiens, UniProt P13501).
T7 sequence (P13501 24-91): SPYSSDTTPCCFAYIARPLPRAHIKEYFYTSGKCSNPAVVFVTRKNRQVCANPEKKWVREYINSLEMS
Nature of the assay: Biolayer interferometry (BLI) binding. The method, boiled down:
as §1

The target of assay [12] is T8, CCL4L1_HUMAN (Homo sapiens, UniProt Q8NHW4).
T8 sequence (Q8NHW4 24-92): T6 sequence (P13236 24-92) with S47G
Nature of the assay: Biolayer interferometry (BLI) binding. The method, boiled down:
as §1

The target in assay [13] is T9, CCL8_HUMAN (Homo sapiens, UniProt P80075).
T9 sequence (P80075 24-99): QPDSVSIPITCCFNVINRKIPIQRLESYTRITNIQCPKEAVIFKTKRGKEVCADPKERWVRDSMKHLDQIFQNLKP
The assay is described as follows: Biolayer interferometry (BLI) binding. The conditions noted are these: read-out: Kd, CCL8_HUMAN. The method, boiled down: as §1

The target of assay [14] is CCL7_HUMAN (Homo sapiens, UniProt P80098). Nature of the assay: Biolayer interferometry (BLI) binding. The gist of the method:
as §1

The test system of assay [15] is human CCL5 together with CXCL8, CXCL1, CCL3 or CCL2. The assay is described as follows: Biolayer interferometry polyvalent binding (association with CCL5, then CCL5 plus second chemokine). As to conditions: BLI, wavelength shift in association 2. From the text: FIG. 10. Polyvalent binding of CC and CXC chemokines to two-warhead evasins. […] This was followed by association with CCL5+CXCL8 (light grey trace), or with CCL5+CXCL1 (dark grey trace) or CCL5+CCL3 (black trace) (association 2), and then dissociated in buffer (dissociation).
FIG. 11. Polyvalent binding of CC and CXC chemokines to two-warhead evasins. […] This was followed by association with CCL5+CXCL8 (light grey trace), or with CCL5+CXCL1 (dark grey trace) or CCL5+CCL2 (black trace) (association 2), and then dissociated in buffer (dissociation).
The ability of 2-warhead evasins to engage in polyvalent binding of CC and CXC chemokines was further determined.

The target of assay [16] is T10, CXCL11_HUMAN (Homo sapiens, UniProt O14625).
T10 sequence (O14625 22-94): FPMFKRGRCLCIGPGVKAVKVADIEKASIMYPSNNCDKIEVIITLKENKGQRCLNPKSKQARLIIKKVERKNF
Nature of the assay: Yeast surface display (YSD) FACS binding. As to conditions: FACS re-test; mean percent shift where several clones. The gist of the method:
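Yeast clones displaying tick peptides were re-tested by FACS with labelled chemokine detected by streptavidin-Alexa conjugate. Binding was scored as % of peptide-expressing cells above a background set with streptavidin-Alexa alone, averaged over independent clones. In the screen tables, >3-fold over background mean fluorescence intensity was scored as binding.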
In general terms: Flow cytometry measures light scatter and fluorescence of single cells or particles in a stream.

Assay [17] deals with T11, CCL22_HUMAN (Homo sapiens, UniProt O00626).
T11 sequence (O00626 25-93): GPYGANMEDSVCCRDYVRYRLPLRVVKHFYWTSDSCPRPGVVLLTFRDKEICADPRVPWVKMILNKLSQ
The assay is described as follows: Biolayer interferometry (BLI) binding. The method, boiled down:
as §1

The target of assay [18] is T12, CCL14_HUMAN (Homo sapiens, UniProt Q16627).
T12 sequence (Q16627 20-93): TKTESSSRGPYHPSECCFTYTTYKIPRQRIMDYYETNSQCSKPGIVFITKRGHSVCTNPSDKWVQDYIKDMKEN
The assay is described as follows: Biolayer interferometry (BLI) binding. The method, boiled down: as §1

For assay [19], the target named is T13, CCL17_HUMAN (Homo sapiens, UniProt Q92583).
T13 sequence (Q92583 24-94): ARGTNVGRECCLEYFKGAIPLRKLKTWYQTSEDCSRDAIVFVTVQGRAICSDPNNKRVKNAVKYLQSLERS
The assay is described as follows: Biolayer interferometry (BLI) binding. The method, boiled down: as §1

Assay [20] has as its system chemokines. As to conditions: list of chemokines bound, from the literature [18,20-22]; cited from earlier work.

Positions count from the first letter of the chain named. Entries after “also recorded” stand apart in the source; their conditions may differ.

Sequence of CCL2_HUMAN (P13500 24-99): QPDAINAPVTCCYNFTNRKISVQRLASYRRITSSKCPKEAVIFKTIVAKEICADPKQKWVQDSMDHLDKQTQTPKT
Sequence of CCL7_HUMAN (P80098 24-99): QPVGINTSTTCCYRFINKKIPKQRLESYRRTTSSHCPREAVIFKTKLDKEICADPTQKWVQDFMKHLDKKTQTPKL
Sequence of CCL11_HUMAN (P51671 24-97): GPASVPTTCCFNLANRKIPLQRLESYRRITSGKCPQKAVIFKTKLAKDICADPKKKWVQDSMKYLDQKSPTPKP
Sequence of CCL13_HUMAN (Q99616 17-98): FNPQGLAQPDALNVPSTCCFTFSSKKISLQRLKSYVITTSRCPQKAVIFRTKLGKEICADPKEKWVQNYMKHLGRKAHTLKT
Sequence of CCL3L1_HUMAN (P16619 24-93): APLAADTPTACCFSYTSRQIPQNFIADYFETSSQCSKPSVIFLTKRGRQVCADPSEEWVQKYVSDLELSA

B1: P985_AMBPA: tick CKBP, Amblyomma parvum (protein, listed as Amblyomma parvum)
chain: DEESEELGASTDVDYEELDANCTCPAPALTSTRNNKHYPLGCIYNCSSYNCTIPDGTPCYVLTLGEVKEHLQIGSTVPNCTCGLCRNGTCVSNGTVEECFAVEEIEET
In the case of B1, the Kd in assay [1] turned out to be 8 nM; in assay [2], 89 nM; in [3], 17 nM; in assay [4] it was 45 nM; in [5], 8.3 nM; in assay [6] it was 8.9 nM. The dissociation constant Kd amounted to 430 nM in [7]; 41 nM in [8]; 46 nM in assay [9]; 7.5 nM in assay [10]; 3.5 nM in assay [11]; 21 nM in assay [12]. The dissociation constant Kd came out at 6.5 nM in assay [13] and 61 nM in assay [14].

B2: SEQ ID NO: 81: two-warhead evasin: P1156_IXORI linked via GGGGS linker to P1243_AMBAM (protein)
chain: ADDDNELFTVQYCGMNCTKDEGGTWTGCTGKKEGCKCYHESGKNYGLCLSTEYTDFSQYGNPSDSEIEAAKPKRSDTLSHGGGGSRNHTEDNSTEYYDYEEARCACPARHLNNTNGTVLKLLGCHYFCNGTLCTAPDGYPCYNLTAQQVRTLTTYPNTSCAVGVCMKGTCVKNGTMEQCFKTP
modifications: hybrid polypeptide
notes: two-warhead evasin: P1156_IXORI linked via GGGGS linker to P1243_AMBAM
Regarding B2, the “Polyvalent (simultaneous) binding of CC and CXC chemokines” value (“Polyvalent (simultaneous) binding” for short) in assay [15] was “can associate simultaneously with CCL5 and either CXCL8 or CXCL1”.

B3: P1078_IXORI: novel CXC-binding tick CKBP, Ixodes ricinus (protein, listed as Ixodes ricinus)
chain: GSKGSSAQQSSHDSIKAEFCETNCTMKTGGKWTQCHGGCFCVHVGNETVGRCIKLDGDYDYPSSKHEE
Take B3: in [16], the “Chemokines bound in yeast surface display and % cells over threshold fluorescence: CXCL11_HUMAN” value is recorded as “CXCL11_HUMAN 38%”.

B4: P675_IXORI: novel CXC-binding tick CKBP, Ixodes ricinus (protein, listed as Ixodes ricinus)
chain: GSNQLSGPQSSANSNDAVFCDTNCTQGTDGAWSGCRGDCFCVHVGNSTEGRCIELIGDFDYSTPGAED
Take B4: the “Chemokines bound in yeast surface display and % cells over threshold fluorescence: CXCL11_HUMAN” value in assay [16] was “CXCL11_HUMAN 55%”.

B5: SEQ ID NO: 80: two-warhead evasin: P1156_IXORI linked via GGGGS linker to P991_AMBCA (protein)
chain: ADDDNELFTVQYCGMNCTKDEGGTWTGCTGKKEGCKCYHESGKNYGLCLSTEYTDFSQYGNPSDSEIEAAKPKRSDTLSHGGGGSENGEGTTQPDYDNSTDYYNYEDFKCTCPAPHLNNTNGTVMKPIGCYYTCNVTRCTAPDTYPCYNLTEHQAKNLTTSPTTLCAVGNCDHGICVPNGTKELCFKAPNLEE
modifications: hybrid polypeptide
notes: two-warhead evasin: P1156_IXORI linked via GGGGS linker to P991_AMBCA
Regarding B5, in assay [15], the “Polyvalent (simultaneous) binding” value was “can associate simultaneously with CCL5 and either CXCL8 or CXCL1”.

B6: P974_AMBCA: tick CKBP, Amblyomma cajennense; ACA-01 stated identical (protein)
chain: ENTQQEEQDYDYGTDTCPFPVLANKTNKAKFVGCHQKCNGGDQKLTDGTACYVVERKVWDRMTPMLWYECPLGECKNGVCEDLRKKEDCRKGNGEEK
modifications: Amblyomma cajennense
notes: tick CKBP, Amblyomma cajennense; ACA-01 stated identical
For the molecule B6, the Kd in assay [1] was 17 nM; in [17] it was 16.5 nM; in [18] it was 49.1 nM; in assay [2], 22.9 nM; in assay [19] it was 70.6 nM; in [3], 93 nM. Also, the Kd was found to be 70.5 nM in assay [5]; 7.97 nM in assay [6]; 17 nM in assay [7]; 30.2 nM in assay [9]; 13.1 nM in assay [10]; 160 nM in assay [11]. Moreover, the Kd in [12] was 23.2 nM; in assay [13], 2.58 nM; in assay [14], 41.2 nM. Besides, the “Previously described chemokine binding” value in assay [20] is reported as “CCL11, CCL24,; also recorded: CCL26, CCL2,; also recorded: CCL8, CCL7”.

B7: P546_AMBCA: tick CKBP, Amblyomma cajennense (protein)
chain: B6 chain with Q8E, E69S, D88E
modifications: Amblyomma cajennense
In the case of B7, the equilibrium dissociation constant (Kd) was found to be 8.7 nM in assay [1]; 27 nM in [17]; 28 nM in assay [18]; 13 nM in [2]; 70 nM in [19]; 83 nM in [3]. The Kd is 160 nM in [5]; 15 nM in assay [6]; 16 nM in [7]; 27 nM in assay [9]; 15 nM in [10]; 8.9 nM in assay [12]. For the same molecule, the Kd was 1.3 nM in assay [13] and 90 nM in [14].

B8: P1090_IXORI: novel CXC-binding tick CKBP, Ixodes ricinus (protein, listed as Ixodes ricinus)
chain: GSKELSGPESSENSIEAAFCDTNCTEGTDGVWSGCSAGCFCVHVGNSTVGRCMTFNGVDGG
As for B8, the “Chemokines bound in yeast surface display and % cells over threshold fluorescence: CXCL11_HUMAN” value in assay [16] was “CXCL11_HUMAN 32%”.

B9: SEQ ID NO: 73: two-warhead evasin: P991_AMBCA linked via GGGGS linker to P1156_IXORI (protein)
chain: ENGEGTTQPDYDNSTDYYNYEDFKCTCPAPHLNNTNGTVMKPIGCYYTCNVTRCTAPDTYPCYNLTEHQAKNLTTSPTTLCAVGNCDHGICVPNGTKELCFKAPNLEEGGGGSADDDNELFTVQYCGMNCTKDEGGTWTGCTGKKEGCKCYHESGKNYGLCLSTEYTDFSQYGNPSDSEIEAAKPKRSDTLSH
modifications: hybrid polypeptide
notes: two-warhead evasin: P991_AMBCA linked via GGGGS linker to P1156_IXORI
Turning to B9, the “Polyvalent (simultaneous) binding” value in assay [15] is “can associate simultaneously with CCL5 and either CXCL8 or CXCL1”.

B10: P942_IXORI: novel CXC-binding tick CKBP, Ixodes ricinus (protein, listed as Ixodes ricinus)
chain: NQLSGPQSSANSNEAVFCDTNCTQGTDEAWSGCRGDCFCVYVGNSTEGRCMMLSGDFDYSTPGAED
As to B10, the “Chemokines bound in yeast surface display and % cells over threshold fluorescence: CXCL11_HUMAN” value in assay [16] is “CXCL11_HUMAN 37%”.

A word on the Kd: it is the free concentration of one partner at which half of the binding sites on the other are occupied at equilibrium, for simple one-to-one binding.
